Results as given in US20210371499A1.

Assays:
[1] = target: DMF5 TCR
[2] = target: DMF5 TCR; assay: flow cytometry of Jurkat/MA cells transduced with DMF5, stained with the pooled barcoded tetramer library

| percent DMF5 positive cells [2] [%] | Substance | percent tetramer-positive cells [1] [%] |
| --- | --- | --- |
| – | CMVpp65/HLA-A*02:01 tetramer (from UniProt P61769 21-119) (peptide-MHC) | 0.1 |
| 33 | MART-1/HLA-A*02:01 tetramer (from UniProt P61769 21-119) (peptide-MHC) | – |
